Reference: PMC5007650, “Crystal structure of the two-subunit tRNA m^1A58 methyltransferase TRM6-TRM61 from Saccharomyces cerevisiae” (Scientific Reports, 2016)
Blank lines part the entries; values can stand above or below the binder they belong to.

Key:
[1] = target: T1, TRM6 from Saccharomyces cerevisiae (S. cerevisiae, UniProt P41814 1-478); test: crystal structure; sitting-drop vapour diffusion at 293 K, 0.1 M HEPES pH 7.5, 2% MPD, 10% PEG 6000; apo TRM6-TRM61 and TRM6-TRM61 with SAM, each at 2.2 Å; heterotetramer from symmetry-related molecules; settings: both partners purified
T1 construct: TRM6, non-catalytic subunit of the tRNA m1A58 methyltransferase, S. cerevisiae, full length; A selenomethionine derivative was used for phasing only; also called TRM6 subunit; source: bacteria, expression plasmid pETDuet-TRM6-TRM61, purified as the TRM6-TRM61 complex (Ni2+-NTA, Superdex 200)
T1 sequence (looked up): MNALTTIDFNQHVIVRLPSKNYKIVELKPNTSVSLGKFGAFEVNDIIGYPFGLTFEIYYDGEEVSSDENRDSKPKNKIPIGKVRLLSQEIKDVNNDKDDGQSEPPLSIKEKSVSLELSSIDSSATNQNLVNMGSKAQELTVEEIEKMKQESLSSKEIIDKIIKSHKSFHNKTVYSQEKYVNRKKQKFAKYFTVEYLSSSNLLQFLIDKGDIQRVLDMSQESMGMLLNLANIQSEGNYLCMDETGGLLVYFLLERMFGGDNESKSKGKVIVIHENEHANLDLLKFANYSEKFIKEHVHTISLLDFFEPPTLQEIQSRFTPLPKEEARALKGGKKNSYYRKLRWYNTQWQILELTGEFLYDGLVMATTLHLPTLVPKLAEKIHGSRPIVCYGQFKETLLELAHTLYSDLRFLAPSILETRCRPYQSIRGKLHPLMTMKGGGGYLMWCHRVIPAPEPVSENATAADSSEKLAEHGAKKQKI

[2] = target: the molecule itself; test: as above

binding result [1]: binds
B1: TRM61 from Saccharomyces cerevisiae (enzyme, S. cerevisiae, UniProt P46959 1-383, looked up)
chain: MSTNCFSGYKDLIKEGDLTLIWVSRDNIKPVRMHSEEVFNTRYGSFPHKDIIGKPYGSQIAIRTKGSNKFAFVHVLQPTPELWTLSLPHRTQIVYTPDSSYIMQRLNCSPHSRVIEAGTGSGSFSHAFARSVGHLFSFEFHHIRYEQALEEFKEHGLIDDNVTITHRDVCQGGFLIKKGDTTSYEFGNNETAASLNANVVFLDLPAPWDAIPHLDSVISVDEKVGLCCFSPCIEQVDKTLDVLEKYGWTDVEMVEIQGRQYESRRQMVRSLNDALERLRDIKRHKLQGVERRKRMFNNTIDSNDEKVGKRNEDGVPLTEKAKFNPFGKGSRIKEGDSNYKWKEVTKMEAEIKSHTSYLTFAFKVVNRSRDDEKVNEILRSTEK
notes: TRM61, catalytic subunit of the tRNA m1A58 methyltransferase, S. cerevisiae, full length; also called TRM61 subunit; catalytic subunit; source: bacteria, expression plasmid pETDuet-TRM6-TRM61, purified as the TRM6-TRM61 complex (Ni2+-NTA, Superdex 200)

B2: TRM6-TRM61 heterodimer from Saccharomyces cerevisiae (complex, S. cerevisiae)
chain 1: T1 sequence (looked up)
chain 2: B1 chain
notes: TRM6, S. cerevisiae, full length; as the chain of m1; TRM61, S. cerevisiae, full length; as the chain of m2; 1:1 heterodimer of TRM6 and TRM61 (the asymmetric unit of the crystal); two of them form the 2:2 heterotetramer; also called TRM6-TRM61 holoenzyme; TRM6-TRM61 complex; source: bacteria, expression plasmid pETDuet-TRM6-TRM61, purified (Ni2+-NTA, Superdex 200)
binding result [2]: binds
